Target: Interleukin-1 receptor 1 on human umbilical vein endothelial cells (human (endogenous in HUVEC)) (UniProt P14778)
Sequence of UniProt P14778 (P14778 18-569): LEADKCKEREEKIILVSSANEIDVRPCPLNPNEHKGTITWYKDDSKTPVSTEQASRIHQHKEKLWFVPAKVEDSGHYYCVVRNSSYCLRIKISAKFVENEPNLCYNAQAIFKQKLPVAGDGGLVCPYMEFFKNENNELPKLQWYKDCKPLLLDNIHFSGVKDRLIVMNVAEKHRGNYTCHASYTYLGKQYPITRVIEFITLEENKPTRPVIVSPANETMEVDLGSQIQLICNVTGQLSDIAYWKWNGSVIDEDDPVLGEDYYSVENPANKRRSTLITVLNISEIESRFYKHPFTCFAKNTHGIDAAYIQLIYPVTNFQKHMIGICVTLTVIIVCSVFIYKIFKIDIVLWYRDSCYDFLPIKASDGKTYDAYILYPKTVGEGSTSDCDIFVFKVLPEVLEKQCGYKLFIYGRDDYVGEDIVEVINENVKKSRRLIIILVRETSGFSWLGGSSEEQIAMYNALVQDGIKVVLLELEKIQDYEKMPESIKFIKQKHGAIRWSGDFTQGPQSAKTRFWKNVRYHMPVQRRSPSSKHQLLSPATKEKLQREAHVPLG

percent VCAM1-positive HUVECs (flow cytometry) after 4h with unstimulated monocytes (% VCAM pos. cells): 2.5
percent VCAM1-positive HUVECs (flow cytometry) after 4h with upLPS-stimulated monocytes (% VCAM pos. cells): 25.9
percent VCAM1-positive HUVECs (flow cytometry) after 4h with upLPS-stimulated monocytes, HUVECs pre-treated 1h with neutralizing IL1R1 antibody (10 µg/ml, AB-269-NA, R&D Systems) (% VCAM1 pos. cells): 18.6
percent adhesion of calcein-labeled, LPS-pre-stimulated monocytes to HUVECs (remaining fluorescence after washing): 6.7%
percent adhesion of calcein-labeled, non-stimulated monocytes to HUVECs (remaining fluorescence after washing): 3.5%
Substance: cell-surface Interleukin-1α on human primary monocytes (from UniProt P01583 113-271) (ligand)
